Assay: yeast display, Sf9 membrane polyspecificity reagent, FACS + sequencing; frameworks hold sequencing errors
Summary of the method: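 Using colony PCR, genes from sorted yeast display clones were amplified, then sequenced on MiSeq at 2 × 250 and filtered by CDR length. The clones had been stained with 10% biotinylated, detergent-solubilized Sf9 membrane reagent for 1 hour at 4 °C and sorted by FACS into low and high (top ~1%) gates on anti-HA and streptavidin fluorescence. Polyreactivity labels come from the gate of origin.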

Sequence | polyreactivity (PSR sort gate)
QVQLVESGGGLVQAGGSLRLSCAASGFTFYPYAMGWYRQAPGKERELVARITWSGGSTSYADSVKGRFTISRDNAKNTVYLQMNSLKPEDTAVYYCSKAYHHSEFDYWGLGTQVTVSS | high polyreactivity
QVQLVESGGGLVQAGGSLRLSCAASGFTFYQYAMGSYRQAPGKESEFVATISSGGSTYYADSVKGRFTISRDNAKNTFYLQMNSLIPEDTAVYYCAKVDFIVGYYYWGQGTQVTVSS | low polyreactivity
QVQLVESGGGLVQAGGSLRLSCAASGFTFYRNAMGWYRPAPGKERELVAAISGRGGGTYYADSVKGRFTISRDNAKNTVYLQMNSLKPEDTAVYYCNARLSWSAFGYWGQGTQVTVSS | high polyreactivity
QVQLVESGGGLVQAGGSLRLSCAASGFTFYRNAMGWYRQAPGKERELVAAITRAGSTYYADSVKGRFTISRDNAKNTVYLQMNSLKPEDTAVYYCFDMSNRYAVRYDYWGQGTQVSVSS | high polyreactivity
QVQLVESGGGLVQAGGSLRLSCAASGFTFYRNARGWYRQAPGKERELVAAISISGGSTYYADSVKGRFTISRDNAKNTVYLQMNSLKPEDTAVYYCAAYYYRDRYSRVKVTYWGQGTQVTVSS | high polyreactivity
QVQLVESGGGLVQAGGSLRLSCAASGFTFYRNVMGWYRQAPGKERELVAAISSRGGSTYYADSVKGRFTISRDNAKNTVYLQMNSLKPEDTAVYYCNKARYTVISYDEYDYWGQGTQVTVSS | high polyreactivity
QVQLVESGGGLVQAGGSLRLSCAASGFTFYRYAMGCYRQAPGKERELVAAITSSGGNTYYADSVKGRFTISRDNGKNTVYLQMNSLKPEDTAVYYCAKYTRIRFEYEYWGLGTQVTVSS | high polyreactivity
QVQLVESGGGLVQAGGSLRLSCAASGFTFYRYAMGWYRHAPGKERELVAAITRSGSRTYYADSVKGRFTISRDNAKNTVYLQMNSLKPEDTAVYYFNTDGGDHPTARYGYWGQVTQVTVSS | high polyreactivity
QVQLVESGGGLVQAGGSLRLSCAASGFTFYRYAMGWYRPAPGKERELVAAISKSGGTTFYADSVKGRFTISRDNAKNTVYLQMNSLKPEDTEVYYCAVDVPYVQSYIPDPPNVYYWGQGTQVTVSS | high polyreactivity
QVQLVESGGGLVQAGGSLRLSCAASGFTFYRYAMGWYRQAPGKERELVAAISTSGGSTYYADSVKGRFTISRDNAKNTVYLQMNSLKPEDTAVYYCAASYYGKRDRAGPYYSFDYWGQGTQVTVSS | high polyreactivity
QVQLVESGGGLVQAGGSLRLSCAASGFTFYRYAMGWYRQAPGKERELVAAITWSGGATYYADSVKGRFTISRDNAKNTVYLQMNSLKPEDTAVYYCAADIYDGGFDYWGQGTQVTVSS | low polyreactivity
QVQLVESGGGLVQAGGSLRLSCAASGFTFYRYAMGWYRQAPGQEREVVAAIRKSGGSTYYADSVKGRFTISRDNAKTTVYLQMNSLKPEDTAVYYCAKRYATDGFGYWGQGTQVTVSS | high polyreactivity
QVQLVESGGGLVQAGGSLRLSCAASGFTFYRYDMGWYRQAPGKERELVAAITNNGGKTYYADSVKGRITISRDNAKYSDYLQMNSLKPVDTAVYYSAAEFYWGDLSYWGQGTQVTVSS | high polyreactivity
QVQLVESGGGLVQAGGSLRLSCAASGFTFYRYTMGWYRQAPGKERELVAAISRGGRTYYADSVKGRFTISRDNAKNTVYLQMNSLKPEDTAVYYCNARYPSADDWGQGTQVTVSS | high polyreactivity
QVQLVESGGGLVQAGGSLRLSCAASGFTFYRYTMGWYRQAPGKERELVAAISRRGGRTYYADSVKGRFTISRDYAKNSVYLQMNSLKPEDTAVYYCAADSAAYVFGEAYDYWGKGTQVTVSS | high polyreactivity
QVQLVESGGGLVQAGGSLRLSCAASGFTFYRYTMGWYRQAPGKERELVASITRRGGSTYYADSVKGRFTISRDNAKNTVYLQMNSLKPEDTAVYYCNAATPVWQSGTYEYWGQGTQVTVSS | high polyreactivity
QVQLVESGGGLVQAGGSLRLSCAASGFTFYSNAMGWYRQAPGKERELVAAINWGGGSTYYADSVKGRFTISRDNAKNTVYLQMNSLKPEDTAVYYCAAEPIWEYWNGVSYAYDYWGQGTQVTVSS | low polyreactivity
QVQLVESGGGLVQAGGSLRLSCAASGFTFYSNAMGWYRQAPGKERELVAAISYSGGSTYYADSVKGRFTISRDNAKNTVYLQMNSLKPEDTAVYYCAAGGLQQGDYWGQGTQVTVSS | low polyreactivity
QVQLVESGGGLVQAGGSLRLSCAASGFTFYSNAMGWYRQAPGKEREMVATITASGGSTYYADSVKGRFTNSRDNAKYTVYVQMYSLKPEDTAVYYCAKDLYWYYRRRGQYVYWGQGTQVTVSS | high polyreactivity
QVQLVESGGGLVQAGGSLRLSCAASGFTFYSYAMGWNRQAPGKERELVAAISGGGGSTYYADSVKGRFTISRDNAKNTVYLQMNSLKPEDTAVYYCAKRPAYRGYGLGYYWGQGTQVTVSS | high polyreactivity
QVQLVESGGGLVQAGGSLRLSCAASGFTFYSYAMGWYRQAPGKERELVAAISRSGGRTYYADSVKGRFTISRDNAKNTVYLQMNSLKPEDTAVYYCAAEAYGPYSYSYSPYGYYYWGQGTQVTVSS | high polyreactivity

Sequence | polyreactivity (PSR sort gate)
QVQLVESGGGLVQAGGSLRLSCAASGFTFYSYAMGWYRQAPGKERELVAAISWSGTRTYYADSVKGRFTISRDNAKNTVYLQMNSLKPVDTAVYDCAADTRRWARGYDYWGQGTQVTVSS | high polyreactivity
QVQLVESGGGLVQAGGSLRLSCAASGFTFYSYAMGWYRQEPGKEREFVAAITSRGGSTYYADSVKGRFTISRDNAKNTVYLQMNSLKPEDNAVYYCAAYAGYSDQARYYYWGQGTQVTVSS | high polyreactivity
QVQLVESGGGLVQAGGSLRLSCAASGFTFYSYTMGWYRQAPGKERELVAAISGRSVRTYYADSVKGRFTISRDNAKNTVYLQMNSLKPEDTAVYYCARAYYWRTSWYNYWGQGTQVTVSS | high polyreactivity
QVQLVESGGGLVQAGGSLRLSCAASGFTFYTNAMGWYRQAPGKEREFVAAISFSGGTYYADSVKGRFTISRDNAKNTVYLQMNSLKPEDTAVYYCNARYPRYYRGVIQYDYWGQGTQVTVSS | low polyreactivity
QVQLVESGGGLVQAGGSLRLSCAASGFTFYTNTMGWYRQAPGKERELVAAISSGGSTYYADSVKGRFTISLDNAKNTVYLKMNSLKPEVTAVYYCAVYGPWAYYPMGYWGQGTQVTVSS | low polyreactivity
QVQLVESGGGLVQAGGSLRLSCAASGFTFYTYAMGWYRHAPGKERELVAAITSSGGSTYYADSVKGRFTISRDNAKNSVYLQMNSLKPEDTAVYYCKAVSYYLGDDYWGQGTQVNVSS | high polyreactivity
QVQLVESGGGLVQAGGSLRLSCAASGFTFYTYAMGWYRPAPGKERELVATITIGDGSTYYADSVKGRFTISRDNAKNTVYLQMNSLKPEDTAVYYCNRDSVGYDYWGQGSQVTVSS | low polyreactivity
QVQLVESGGGLVQAGGSLRLSCAASGFTFYTYVMGWYRQAPGKERELVAAISGRGGSTYYADSVKGRFTISRDNAKNTVYLQMNSLKPEDTAVYYCATVRSYSRVVGYDYWGQGTQVTVSS | high polyreactivity
QVQLVESGGGLVQAGGSLRLSCAASGFTFYVNVMGWYRQPPGKEREFVAAIRTRGASTYYADSVKGRFTISRDNAKNTVYLQMNSLKPEDTADYYCAAGWFWNYWYGVSMDYWGQGTQVTVSS | high polyreactivity
QVQLVESGGGLVQAGGSLRLSCAASGFTFYVYAMGWYRQAPGKERELVAAISKSGGSTYYADSVKGRFTISRDNAKNTVYLQMNSLKPEDTAVYYCAVYDKRSGYRGGHRYNSWGQGTQVTVSS | high polyreactivity
QVQLVESGGGLVQAGGSLRLSCAASGFTFYWYAMGWYRQAPGKERELVAAITRSGSSTYYADSVKGRFTISRDNAKNTVYLQMNSLKPEDTAVYYCAKAYRPPGYDSWGQGTQVTVSS | high polyreactivity
QVQLVESGGGLVQAGGSLRLSCAASGFTFYYNAMGWYRQAPGKERELGASITRSGGRTYYADSVKGRFTISRDYAKNTVYLQMNSLKPEDTAVYYCARRYPGGYYWGQGTHVTVSS | high polyreactivity
QVQLVESGGGLVQAGGSLRLSCAASGFTFYYYALGWYRQAPGKERELVAAISTRDGNTYYADSVKGRFTISRDNAKNTVYLQMNSLKPEDTAVYYCAADSYSGYNYWGQGTQVTVSS | low polyreactivity
QVQLVESGGGLVQAGGSLRLSCAASGFTFYYYAMGWYRQAPGKERELVAAITSSGGRTYYADSVKGRFTISRDNAKNTVYLQMNSLKPEDTAVYYCAATGFYHRGEYYYWGQGTQVTVSS | low polyreactivity
QVQLVESGGGLVQAGGSLRLSCAASGFTFYYYAMGWYRQAPGKERELVAAITWSGDSTNYADSVKGRFTISRDNAKNSVYLQMNSLKPEDTAVYYCATESYDSYGLYDYWGQGTQVTVSS | low polyreactivity
QVQLVESGGGLVQAGGSLRLSCAASGFTFYYYAMGWYRQAPGKERELVAGINSDGNTYYADSVKGRFTISRDNAKNTVYLQMNSLKPEDTAVYYCAARKLWPKNFVRHDYWGQGTQVTVSS | low polyreactivity
QVQLVESGGGLVQAGGSLRLSCAASGFTFYYYAMGWYRQAPGKERELVARITSGGSTYYADSVKGRFTISRDNAMYTVYLQMNCLKPEDTAVYYCNVDVSVEVAYWGQGTQVTVSS | low polyreactivity
QVQLVESGGGLVQAGGSLRLSCAASGFTFYYYAMGWYRQAPGKERELVAVITSGGNTYYADSVKGRFTISRDNAKNNVYLQMNSLKPEDTAVYYCAKDVSDPFYDPFEYWGQGTQVTVSS | low polyreactivity
QVQLVESGGGLVQAGGSLRLSCAASGFTFYYYAMGWYRQAPGTEMELVAALSRSGVRTYYADSVNGRFTISRDNGKNTVYLQMTSLKPEDTAVYYCAAEFARSRMNYWGQGTKVTVSS | high polyreactivity
QVQLVESGGGLVQAGGSLRLSCAASGFTHDWYAMGWYRQAPGKERELVAAIWSAGTTYYADSVKGRFTISRDNAMNTVYLQMNSLKPEDPAVYYCATVSDYDFGLYDYWGQGTQVTVSS | low polyreactivity
